Data on five substances can be found in patent publication US20140051834A1, “Incretin Receptor Ligand Polypeptide Fc-Region Fusion Polypeptides And Conjugates With Altered Fc-Effector Function” (Hoffman-La Roche, Inc., priority 2012, published 2014).

The target in one test is FcγRI (human) (UniProt P12314). Nature of the test: SPR (BIAcore T100, 25 °C); FcγRI captured by pentaHis antibody, antibody as analyte. (In general: In SPR one partner is held on a chip, and binding of the other changes the refractive index at the surface.)
Chain of FcγRI (human) (P12314 16-288 limits assumed): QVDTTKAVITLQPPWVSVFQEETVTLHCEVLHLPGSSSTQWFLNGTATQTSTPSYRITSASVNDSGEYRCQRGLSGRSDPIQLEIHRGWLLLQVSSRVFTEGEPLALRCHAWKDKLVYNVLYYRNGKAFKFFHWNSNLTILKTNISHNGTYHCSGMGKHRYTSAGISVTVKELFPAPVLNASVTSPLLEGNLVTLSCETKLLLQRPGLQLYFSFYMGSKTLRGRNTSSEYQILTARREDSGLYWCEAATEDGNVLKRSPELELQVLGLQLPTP
The target of the next test is FcγRIIIA-V158 (human) (UniProt P08637). Briefly: SPR (BIAcore T100, 25 °C); antibody immobilised, receptor as analyte, steady state fit.
Chain of FcγRIIIA-V158 (human) (P08637 17-208 F176V limits assumed): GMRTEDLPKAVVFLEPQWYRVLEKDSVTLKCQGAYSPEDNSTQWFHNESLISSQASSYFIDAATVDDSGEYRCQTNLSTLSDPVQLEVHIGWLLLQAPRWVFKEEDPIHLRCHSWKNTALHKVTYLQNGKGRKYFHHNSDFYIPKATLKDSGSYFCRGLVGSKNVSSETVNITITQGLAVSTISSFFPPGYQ
A further test concerns the target FcγRIIA-R131 (human) (UniProt P12318). Described as above.

As a reminder, the Kd is a measure of binding affinity in units of concentration. A low value points to higher affinity.

Chain of FcγRIIA-R131 (human) (P12318 36-218 H167R limits assumed): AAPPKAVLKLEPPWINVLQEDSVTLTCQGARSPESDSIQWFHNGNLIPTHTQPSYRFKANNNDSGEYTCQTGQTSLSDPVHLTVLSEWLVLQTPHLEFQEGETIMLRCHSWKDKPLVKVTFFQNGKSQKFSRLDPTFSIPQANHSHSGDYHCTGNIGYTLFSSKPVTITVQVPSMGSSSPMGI
Chain of IgG4 SPLE (antibody of Tables 1a and 1b, specificity not named) (Fc): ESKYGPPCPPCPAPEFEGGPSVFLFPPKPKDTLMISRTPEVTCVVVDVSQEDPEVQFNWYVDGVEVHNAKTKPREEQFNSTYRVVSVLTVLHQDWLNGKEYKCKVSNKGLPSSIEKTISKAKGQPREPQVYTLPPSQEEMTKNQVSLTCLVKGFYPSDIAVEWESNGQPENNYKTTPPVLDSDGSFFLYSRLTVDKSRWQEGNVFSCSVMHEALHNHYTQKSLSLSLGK

In the case of “IgG1 P329A ge (antibody of Table 1a, specificity not named)”, the Kd with FcγRI (human) was determined as 8 nM; in the test with FcγRIIIA-V158 (human), 1800 nM; with FcγRIIA-R131 (human) it was 4400 nM.
The substance “IgG1 P329G (antibody of Tables 1a and 1b, specificity not named)” had a Kd in the test with FcγRI (human) of 6 nM.
“IgG1 P329G ge (antibody of Table 1a, specificity not named)”: the Kd with FcγRI (human) came to 10 nM.
Consider “IgG4 SPLE (antibody of Tables 1a and 1b, specificity not named)”, for which the Kd in the test with FcγRIIA-R131 (human) turned out to be 10000 nM.
Substance anti-CD20 antibody IgG1 P329G showed a Kd with FcγRI (human) of 5.7 nM.
